# According to publication PMC6555819, “Comprehensive study of nuclear receptor DNA binding provides a revised framework for understanding receptor specificity”:
# Target: PPARa:RXRa (Homo sapiens, UniProt Q07869;P19793 full;full)
# Assay: no ligand; PBM; 270 nM : 90 nM RXRa; PBS pH 7.4, 2% milk, 0.02% Triton X-100, 1 mM DTT, BSA, 0.4 mg/ml salmon testes DNA
# Details: tags: GST kept;His cleaved; copies: 1;1; label: surface-attached array probe
# Procedure, shortened: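 Binding z-scores take random background probes as their reference. They come from custom Agilent 4×180K protein-binding microarrays incubated 1 h with ligand-free nuclear receptor dimers, with antibodies against each partner (one per run) detecting binding. Scanned fluorescence was regression-normalized.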
# Chain of PPARa:RXRa (Q07869 whole entry, chain 1 of 2): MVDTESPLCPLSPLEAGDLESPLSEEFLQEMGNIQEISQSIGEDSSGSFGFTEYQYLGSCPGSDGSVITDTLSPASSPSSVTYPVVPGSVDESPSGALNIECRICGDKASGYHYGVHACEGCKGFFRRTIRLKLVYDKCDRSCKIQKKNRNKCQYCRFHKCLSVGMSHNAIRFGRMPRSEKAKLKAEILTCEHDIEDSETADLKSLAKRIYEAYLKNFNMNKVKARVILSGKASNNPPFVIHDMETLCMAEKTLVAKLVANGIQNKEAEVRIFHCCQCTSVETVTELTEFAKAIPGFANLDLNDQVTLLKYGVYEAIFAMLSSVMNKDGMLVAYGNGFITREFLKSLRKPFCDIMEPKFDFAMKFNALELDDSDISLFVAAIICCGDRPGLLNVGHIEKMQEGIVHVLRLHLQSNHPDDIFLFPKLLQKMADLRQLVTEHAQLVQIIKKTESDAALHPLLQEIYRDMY
# Chain of PPARa:RXRa (P19793 whole entry, chain 2 of 2): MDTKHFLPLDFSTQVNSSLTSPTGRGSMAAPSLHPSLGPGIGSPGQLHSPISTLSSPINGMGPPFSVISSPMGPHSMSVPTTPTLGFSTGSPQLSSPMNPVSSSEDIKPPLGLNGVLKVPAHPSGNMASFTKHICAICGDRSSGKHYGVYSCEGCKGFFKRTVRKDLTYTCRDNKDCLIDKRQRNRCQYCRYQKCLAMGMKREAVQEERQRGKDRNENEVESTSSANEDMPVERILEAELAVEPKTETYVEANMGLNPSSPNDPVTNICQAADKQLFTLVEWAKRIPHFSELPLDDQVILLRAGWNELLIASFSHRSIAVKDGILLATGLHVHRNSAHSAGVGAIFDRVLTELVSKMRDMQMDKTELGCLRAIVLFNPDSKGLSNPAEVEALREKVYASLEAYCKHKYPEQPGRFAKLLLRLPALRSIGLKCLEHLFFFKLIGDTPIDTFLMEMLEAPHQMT
row,Binder,binding signal
1,NRC3_wobSeed64_DR2_G18T_o1 (dsDNA) DNA 1: GCTAGCCTAGGTCATTGTGCCAGTATAGTACGCATCGCGATTGACAGCGTAGAATGAAGG DNA 2: CCTTCATTCTACGCTGTCAATCGCGATGCGTACTATACTGGCACAATGACCTAGGCTAGC,3.37 PBM z-score against 500 random probes
2,NRC3_wobSeed69_DR2_C15G_o1 (dsDNA) DNA 1: GCAGTCAAAGTTCAGTAGGTAACGTAAGATTCAGCTGCGATTGACAGCGTAGAATGAAGG DNA 2: CCTTCATTCTACGCTGTCAATCGCAGCTGAATCTTACGTTACCTACTGAACTTTGACTGC,3.56 PBM z-score against 500 random probes
3,NRC3_wobSeed72_DR2_A22G_o1 (dsDNA) DNA 1: GCTCGAGTAGGTTACGGGGGCGTTCAGGGATGAAGAGCGATTGACAGCGTAGAATGAAGG DNA 2: CCTTCATTCTACGCTGTCAATCGCTCTTCATCCCTGAACGCCCCCGTAACCTACTCGAGC,3.48 PBM z-score against 500 random probes
4,NRC3_wobSeed137_DR5_A25T_o1 (dsDNA) DNA 1: GCATATGTAGGTTACATCCGGGTCTTTCAGGCTATGGCGATTGACAGCGTAGAATGAAGG DNA 2: CCTTCATTCTACGCTGTCAATCGCCATAGCCTGAAAGACCCGGATGTAACCTACATATGC,3.32 PBM z-score against 500 random probes
5,NRC3_wobSeed137_DR5_A14C_o1 (dsDNA) DNA 1: GCATATGTAGGTTCCATCCGGGTCATTCAGGCTATGGCGATTGACAGCGTAGAATGAAGG DNA 2: CCTTCATTCTACGCTGTCAATCGCCATAGCCTGAATGACCCGGATGGAACCTACATATGC,3.09 PBM z-score against 500 random probes
6,NRC3_wobSeed14_DR0_C22G_o1 (dsDNA) DNA 1: GCCCTGCTAGGTCATGGTCAGGTAATCTACAGTATGGCGATTGACAGCGTAGAATGAAGG DNA 2: CCTTCATTCTACGCTGTCAATCGCCATACTGTAGATTACCTGACCATGACCTAGCAGGGC,3.51 PBM z-score against 500 random probes
7,NRC3_wobSeed14_DR0_T5C_o1 (dsDNA) DNA 1: GCCCCGCTAGGTCATGGTCAGCTAATCTACAGTATGGCGATTGACAGCGTAGAATGAAGG DNA 2: CCTTCATTCTACGCTGTCAATCGCCATACTGTAGATTAGCTGACCATGACCTAGCGGGGC,3.35 PBM z-score against 500 random probes
8,NRC3_wobSeed116_DR4_A6T_o1 (dsDNA) DNA 1: GCAGATTGAGGTTACCAAAGATCAGGGAAACGCTTGGCGATTGACAGCGTAGAATGAAGG DNA 2: CCTTCATTCTACGCTGTCAATCGCCAAGCGTTTCCCTGATCTTTGGTAACCTCAATCTGC,3.29 PBM z-score against 500 random probes
9,NRC3_wobSeed20_DR0_C19T_o1 (dsDNA) DNA 1: GCAGAATGAGGTTAAGATTAGGGAAACAGAATACATGCGATTGACAGCGTAGAATGAAGG DNA 2: CCTTCATTCTACGCTGTCAATCGCATGTATTCTGTTTCCCTAATCTTAACCTCATTCTGC,3.39 PBM z-score against 500 random probes
10,NRC3_wobSeed47_DR1_A5T_o1 (dsDNA) DNA 1: GCGGTACGAGGGCAAAGTTGATAGCATCTGTCGACGGCGATTGACAGCGTAGAATGAAGG DNA 2: CCTTCATTCTACGCTGTCAATCGCCGTCGACAGATGCTATCAACTTTGCCCTCGTACCGC,3.22 PBM z-score against 500 random probes
11,NRC3_wobSeed140_DR5_T15C_o1 (dsDNA) DNA 1: GCAGAATGAGGTTACACGTAGATCAGGGAAGAAAGTGCGATTGACAGCGTAGAATGAAGG DNA 2: CCTTCATTCTACGCTGTCAATCGCACTTTCTTCCCTGATCTACGTGTAACCTCATTCTGC,3.5 PBM z-score against 500 random probes
12,NRC3_wobSeed34_DR1_A9G_o1 (dsDNA) DNA 1: GCATCGAAGGGTCGAAGGTGAGTATACCCACCCGAAGCGATTGACAGCGTAGAATGAAGG DNA 2: CCTTCATTCTACGCTGTCAATCGCTTCGGGTGGGTATACTCACCTTCGACCCTTCGATGC,3.17 PBM z-score against 500 random probes
13,NRC3_wobSeed7_DR0_T6G_o1 (dsDNA) DNA 1: GCTCAGATAGGTAAAGGTGAAAGTCGAACGATATGAGCGATTGACAGCGTAGAATGAAGG DNA 2: CCTTCATTCTACGCTGTCAATCGCTCATATCGTTCGACTTTCACCTTTACCTATCTGAGC,3.2 PBM z-score against 500 random probes
14,NRC3_wobSeed43_DR1_G26C_o1 (dsDNA) DNA 1: GCCCAGACAGGTGAAAGGTAACTCACTCTGGTACGCGCGATTGACAGCGTAGAATGAAGG DNA 2: CCTTCATTCTACGCTGTCAATCGCGCGTACCAGAGTGAGTTACCTTTCACCTGTCTGGGC,3.54 PBM z-score against 500 random probes
15,NRC3_wobSeed98_DR4_A28T_o1 (dsDNA) DNA 1: GCACTAGTTGGTCAGCTGAGGTCACACTCAATTCGGGCGATTGACAGCGTAGAATGAAGG DNA 2: CCTTCATTCTACGCTGTCAATCGCCCGAATTGAGTGTGACCTCAGCTGACCAACTAGTGC,3.53 PBM z-score against 500 random probes
16,NRC3_wobSeed75_DR3_G24A_o1 (dsDNA) DNA 1: GCTCTCGGAGGACACGAAGGTCAAAGCTTTCCAGAGGCGATTGACAGCGTAGAATGAAGG DNA 2: CCTTCATTCTACGCTGTCAATCGCCTCTGGAAAGCTTTGACCTTCGTGTCCTCCGAGAGC,3.46 PBM z-score against 500 random probes
17,NRC3_wobSeed102_DR4_A9C_o1 (dsDNA) DNA 1: GCCCTAGCCGGCCAATCTGGGTCACTCAAGGCTTGAGCGATTGACAGCGTAGAATGAAGG DNA 2: CCTTCATTCTACGCTGTCAATCGCTCAAGCCTTGAGTGACCCAGATTGGCCGGCTAGGGC,3.14 PBM z-score against 500 random probes
18,NRC3_wobSeed48_DR1_G5T_o1 (dsDNA) DNA 1: GCCCTAGTAGGTTATGGGGCATTCAGGCAACGGTGAGCGATTGACAGCGTAGAATGAAGG DNA 2: CCTTCATTCTACGCTGTCAATCGCTCACCGTTGCCTGAATGCCCCATAACCTACTAGGGC,3.05 PBM z-score against 500 random probes
19,NRC3_wobSeed141_DR5_C26T_o1 (dsDNA) DNA 1: GCAGTCAAAGTTCAGGACGAGGTAATGTAAAGCACGGCGATTGACAGCGTAGAATGAAGG DNA 2: CCTTCATTCTACGCTGTCAATCGCCGTGCTTTACATTACCTCGTCCTGAACTTTGACTGC,3.3 PBM z-score against 500 random probes
20,NRC3_wobSeed38_DR1_o1 (dsDNA) DNA 1: GCCCTGCTAGGTCAATGGTCAGCTAAAGCAGCTCGCGCGATTGACAGCGTAGAATGAAGG DNA 2: CCTTCATTCTACGCTGTCAATCGCGCGAGCTGCTTTAGCTGACCATTGACCTAGCAGGGC,3.19 PBM z-score against 500 random probes
21,NRC3_wobSeed26_DR1_A21T_o1 (dsDNA) DNA 1: GCTCTAGTTGGTCAAAGGTCTCACACTCGAAATGCGGCGATTGACAGCGTAGAATGAAGG DNA 2: CCTTCATTCTACGCTGTCAATCGCCGCATTTCGAGTGTGAGACCTTTGACCAACTAGAGC,3.41 PBM z-score against 500 random probes
22,NRC3_wobSeed26_DR1_T19C_o1 (dsDNA) DNA 1: GCTCTAGTTGGTCAAAGGCCACACACTCGAAATGCGGCGATTGACAGCGTAGAATGAAGG DNA 2: CCTTCATTCTACGCTGTCAATCGCCGCATTTCGAGTGTGTGGCCTTTGACCAACTAGAGC,3.15 PBM z-score against 500 random probes
23,NRC3_wobSeed110_DR4_T27G_o1 (dsDNA) DNA 1: GCTCTGCTAGGTCAACGATGGTCAGCGAATCTGCTAGCGATTGACAGCGTAGAATGAAGG DNA 2: CCTTCATTCTACGCTGTCAATCGCTAGCAGATTCGCTGACCATCGTTGACCTAGCAGAGC,3.11 PBM z-score against 500 random probes
24,NRC3_wobSeed54_DR2_G15T_o1 (dsDNA) DNA 1: GCTCTAGCAGGCCATAGGGTCACTCAAGAGGTACGGGCGATTGACAGCGTAGAATGAAGG DNA 2: CCTTCATTCTACGCTGTCAATCGCCCGTACCTCTTGAGTGACCCTATGGCCTGCTAGAGC,3.24 PBM z-score against 500 random probes
